# Experimental data: patent publication US20200308270A1 (Zymeworks, published 2020)
# Positions count from the first letter of the chain named. Names and notes keep the numbering of the source.
# T1: human recombinant FcgammaR receptor CD32aR (human, UniProt P12318 34-217, limits assumed)
# T1 sequence (looked up): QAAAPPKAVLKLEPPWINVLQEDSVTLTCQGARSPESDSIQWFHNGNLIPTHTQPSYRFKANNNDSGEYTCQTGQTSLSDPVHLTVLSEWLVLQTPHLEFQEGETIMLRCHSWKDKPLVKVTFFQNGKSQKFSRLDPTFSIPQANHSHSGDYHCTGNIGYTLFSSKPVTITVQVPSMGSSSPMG
# B1: CAT-2200 designed Vlambda-Ckappa chimeric Mab, design 39 (E83A_D85T_T105E_V106I) (antibody, human IgG1, kappa)
# heavy: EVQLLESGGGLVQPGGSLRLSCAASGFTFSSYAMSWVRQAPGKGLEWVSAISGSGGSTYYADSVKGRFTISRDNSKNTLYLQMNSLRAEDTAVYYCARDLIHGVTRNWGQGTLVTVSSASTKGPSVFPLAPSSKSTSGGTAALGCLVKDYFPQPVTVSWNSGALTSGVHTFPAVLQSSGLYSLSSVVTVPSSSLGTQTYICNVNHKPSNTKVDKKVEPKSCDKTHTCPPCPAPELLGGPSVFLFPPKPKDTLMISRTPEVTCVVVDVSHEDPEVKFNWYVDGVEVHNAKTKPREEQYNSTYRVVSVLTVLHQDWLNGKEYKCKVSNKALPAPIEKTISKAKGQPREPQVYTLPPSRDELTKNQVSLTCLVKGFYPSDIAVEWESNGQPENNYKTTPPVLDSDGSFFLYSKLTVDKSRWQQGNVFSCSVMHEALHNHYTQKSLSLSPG
# light: NFMLTQPHSVSESPGKTVTISCTRSSGSLANYYVQWYQQRPGSSPTIVIFANNQRPSGVPDRFSGSIDSSSNSASLTISGLKTEDAATYYCQTYDPYSVVFGGGTKLEILRTVAAPSVFIFPPSDEQLKSGTASVVCLLNNFYPREAKVQWKVDNALQSGNSQESVTEQDSKDSTYSLSSTLTLSKADYEKHKVYACEVTHQGLSSPVTKSFNRGEC
# notes: IgG1 Mab format
# B2: CAT-2200 designed Vlambda-Ckappa chimeric Mab, design 26 (E83V_D85T) (antibody, human IgG1, kappa)
# heavy: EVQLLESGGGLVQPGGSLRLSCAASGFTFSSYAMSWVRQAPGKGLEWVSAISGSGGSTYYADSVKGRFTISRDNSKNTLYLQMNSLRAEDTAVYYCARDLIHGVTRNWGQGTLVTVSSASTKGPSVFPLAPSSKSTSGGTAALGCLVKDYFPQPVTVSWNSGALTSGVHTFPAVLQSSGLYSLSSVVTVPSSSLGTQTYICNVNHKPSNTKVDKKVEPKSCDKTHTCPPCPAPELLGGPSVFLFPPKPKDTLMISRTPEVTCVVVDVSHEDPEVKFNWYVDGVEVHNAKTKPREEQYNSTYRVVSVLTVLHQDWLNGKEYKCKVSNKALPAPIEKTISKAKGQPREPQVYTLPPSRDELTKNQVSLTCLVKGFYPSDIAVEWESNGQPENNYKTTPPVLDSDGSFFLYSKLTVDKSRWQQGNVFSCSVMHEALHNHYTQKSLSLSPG
# light: B1 light with A86V, E108T, I109V
# notes: IgG1 Mab format
# B3: CAT-2200 designed Vlambda-Ckappa chimeric Mab, design 37 (E83A_D85T) (antibody, human IgG1, kappa)
# heavy: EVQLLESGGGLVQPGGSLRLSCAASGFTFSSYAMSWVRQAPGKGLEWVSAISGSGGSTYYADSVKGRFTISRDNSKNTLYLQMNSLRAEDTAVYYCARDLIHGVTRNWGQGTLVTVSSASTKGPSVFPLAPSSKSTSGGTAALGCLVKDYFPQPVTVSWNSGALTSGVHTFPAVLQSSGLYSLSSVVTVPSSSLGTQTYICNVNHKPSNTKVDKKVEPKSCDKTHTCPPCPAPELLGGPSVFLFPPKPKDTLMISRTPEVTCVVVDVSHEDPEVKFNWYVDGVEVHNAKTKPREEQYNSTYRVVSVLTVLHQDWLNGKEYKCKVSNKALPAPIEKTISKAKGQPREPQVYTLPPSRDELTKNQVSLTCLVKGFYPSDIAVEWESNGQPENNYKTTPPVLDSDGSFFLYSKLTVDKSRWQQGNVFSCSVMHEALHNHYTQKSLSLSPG
# light: B1 light with E108T, I109V
# notes: IgG1 Mab format
# B4: CAT-2200 designed Vlambda-Ckappa chimeric Mab, design 34 (E83I_D85T_T105E_V106I) (antibody, human IgG1, kappa)
# heavy: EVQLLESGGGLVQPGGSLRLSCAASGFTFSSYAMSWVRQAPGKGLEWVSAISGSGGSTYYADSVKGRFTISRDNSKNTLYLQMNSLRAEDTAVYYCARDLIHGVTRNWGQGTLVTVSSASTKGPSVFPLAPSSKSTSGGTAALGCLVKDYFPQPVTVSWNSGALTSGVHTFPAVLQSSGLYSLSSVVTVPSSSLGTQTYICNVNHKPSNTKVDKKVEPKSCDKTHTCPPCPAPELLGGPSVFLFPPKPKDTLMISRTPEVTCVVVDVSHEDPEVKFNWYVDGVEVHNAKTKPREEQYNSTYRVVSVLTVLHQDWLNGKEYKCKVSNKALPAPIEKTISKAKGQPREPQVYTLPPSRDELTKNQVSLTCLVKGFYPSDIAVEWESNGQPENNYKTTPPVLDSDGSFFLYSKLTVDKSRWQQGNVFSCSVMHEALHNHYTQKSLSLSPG
# light: B1 light with A86I
# notes: IgG1 Mab format
# B5: CAT-2200 Vlambda-Ckappa chimeric Mab (antibody, human IgG1, kappa)
# heavy: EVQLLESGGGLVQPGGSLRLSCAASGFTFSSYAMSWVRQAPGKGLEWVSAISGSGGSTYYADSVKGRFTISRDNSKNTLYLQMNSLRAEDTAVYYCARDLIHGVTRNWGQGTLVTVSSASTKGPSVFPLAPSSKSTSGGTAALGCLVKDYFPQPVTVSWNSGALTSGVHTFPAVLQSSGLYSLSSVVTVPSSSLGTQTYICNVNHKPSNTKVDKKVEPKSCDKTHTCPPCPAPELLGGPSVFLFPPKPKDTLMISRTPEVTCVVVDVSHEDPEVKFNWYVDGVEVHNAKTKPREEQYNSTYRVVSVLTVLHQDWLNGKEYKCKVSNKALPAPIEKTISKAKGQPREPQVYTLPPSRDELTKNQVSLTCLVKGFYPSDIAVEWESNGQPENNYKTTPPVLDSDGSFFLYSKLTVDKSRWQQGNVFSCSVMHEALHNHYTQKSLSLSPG
# light: B1 light with A86E, T88D, E108T, I109V
# notes: IgG1 Mab format; chimeric light chain without stabilizing substitutions; also called chimera
# B6: CAT-2200 designed Vlambda-Ckappa chimeric Mab, design 32 (E83I_D85T) (antibody, human IgG1, kappa)
# heavy: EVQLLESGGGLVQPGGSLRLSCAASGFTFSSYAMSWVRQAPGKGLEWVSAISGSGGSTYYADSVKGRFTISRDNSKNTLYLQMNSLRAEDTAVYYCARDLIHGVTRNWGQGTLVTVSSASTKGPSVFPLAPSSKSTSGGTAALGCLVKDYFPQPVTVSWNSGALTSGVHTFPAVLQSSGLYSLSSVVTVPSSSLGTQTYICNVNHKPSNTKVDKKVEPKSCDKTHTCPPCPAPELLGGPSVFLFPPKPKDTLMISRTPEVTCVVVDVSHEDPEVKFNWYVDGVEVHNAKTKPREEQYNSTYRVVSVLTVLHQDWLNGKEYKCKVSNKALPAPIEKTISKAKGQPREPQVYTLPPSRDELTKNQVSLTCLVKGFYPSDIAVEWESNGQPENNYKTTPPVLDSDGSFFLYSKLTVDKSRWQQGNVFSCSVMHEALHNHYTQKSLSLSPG
# light: B1 light with A86I, E108T, I109V
# notes: IgG1 Mab format
# B7: CAT-2200 designed Vlambda-Ckappa chimeric Mab, design 18 (E83F_D85T_T105E) (antibody, human IgG1, kappa, V domains shown)
# VH: not shown
# VL: NFMLTQPHSVSESPGKTVTISCTRSSGSLANYYVQWYQQRPGSSPTIVIFANNQRPSGVPDRFSGSIDSSSNSASLTISGLKTEDFATYYCQTYDPYSVVFGGGTKLEVLR
# notes: IgG1 Mab format
# B8: CAT-2200 wild-type lambda Mab (antibody, human IgG1, lambda)
# heavy: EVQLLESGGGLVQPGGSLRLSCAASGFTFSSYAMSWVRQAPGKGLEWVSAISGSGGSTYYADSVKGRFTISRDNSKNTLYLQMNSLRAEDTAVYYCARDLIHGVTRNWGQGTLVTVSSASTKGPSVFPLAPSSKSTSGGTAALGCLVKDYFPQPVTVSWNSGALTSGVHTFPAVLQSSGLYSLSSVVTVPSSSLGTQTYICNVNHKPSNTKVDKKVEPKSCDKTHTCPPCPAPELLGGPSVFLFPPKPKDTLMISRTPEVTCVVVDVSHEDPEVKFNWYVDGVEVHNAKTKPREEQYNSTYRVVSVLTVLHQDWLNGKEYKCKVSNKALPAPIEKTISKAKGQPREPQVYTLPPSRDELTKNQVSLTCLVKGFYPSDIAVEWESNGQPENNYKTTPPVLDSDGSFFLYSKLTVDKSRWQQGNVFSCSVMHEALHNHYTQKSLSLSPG
# light: NFMLTQPHSVSESPGKTVTISCTRSSGSLANYYVQWYQQRPGSSPTIVIFANNQRPSGVPDRFSGSIDSSSNSASLTISGLKTEDEADYYCQTYDPYSVVFGGGTKLTVLGQPKAAPSVTLFPPSSEELQANKATLVCLISDFYPGAVTVAWKADSSPVKAGVETTTPSKQSNNKYAASSYLSLTPEQWKSHRSYSCQVTHEGSTVEKTVAPTECS
# notes: IgG1 Mab format; also called WT
# B9: CAT-2200 designed Vlambda-Ckappa chimeric Fab, design 18 (E83F_D85T_T105E) (Fab, V domains shown)
# VH: not shown
# VL: B7 VL
# B10: CAT-2200 designed Vlambda-Ckappa chimeric Fab, design 19 (E83F_D85V_T105E) (Fab, V domains shown)
# VH: not shown
# VL: B7 VL with T88V
# B11: CAT-2200 designed Vlambda-Ckappa chimeric Fab, design 31 (E83I_T105E) (Fab, V domains shown)
# VH: not shown
# VL: B7 VL with F86I, T88D
# B12: CAT-2200 designed Vlambda-Ckappa chimeric Fab, design 23 (E83V) (Fab, V domains shown)
# VH: not shown
# VL: B7 VL with F86V, T88D, E108T
# B13: CAT-2200 designed Vlambda-Ckappa chimeric Fab, design 17 (E83F_D85T) (Fab, V domains shown)
# VH: not shown
# VL: B7 VL with E108T
# B14: CAT-2200 designed Vlambda-Ckappa chimeric Fab, design 24 (E83V_T105E) (Fab, V domains shown)
# VH: not shown
# VL: B7 VL with F86V, T88D
# B15: CAT-2200 designed Vlambda-Ckappa chimeric Fab, design 34 (E83I_D85T_T105E_V106I) (Fab, V domains shown)
# VH: not shown
# VL: B7 VL with F86I, V109I
# B16: CAT-2200 designed Vlambda-Ckappa chimeric Fab, design 33 (E83I_D85T_T105E) (Fab, V domains shown)
# VH: not shown
# VL: B7 VL with F86I
# B17: CAT-2200 designed Vlambda-Ckappa chimeric Fab, design 21 (E83F_D85V_T105E_V106I) (Fab, V domains shown)
# VH: not shown
# VL: B7 VL with T88V, V109I
# B18: CAT-2200 designed Vlambda-Ckappa chimeric Fab, design 16 (E83F_V106I) (Fab, V domains shown)
# VH: not shown
# VL: B7 VL with T88D, E108T, V109I
# B19: CAT-2200 designed Vlambda-Ckappa chimeric Fab, design 14 (E83F) (Fab, V domains shown)
# VH: not shown
# VL: B7 VL with T88D, E108T
# B20: CAT-2200 designed Vlambda-Ckappa chimeric Fab, design 25 (E83V_V106I) (Fab, V domains shown)
# VH: not shown
# VL: B7 VL with F86V, T88D, E108T, V109I
# B21: CAT-2200 designed Vlambda-Ckappa chimeric Fab, design 37 (E83A_D85T) (Fab, V domains shown)
# VH: not shown
# VL: B7 VL with F86A, E108T
# B22: CAT-2200 designed Vlambda-Ckappa chimeric Fab, design 26 (E83V_D85T) (Fab, V domains shown)
# VH: not shown
# VL: B7 VL with F86V, E108T
# B23: CAT-2200 designed Vlambda-Ckappa chimeric Fab, design 39 (E83A_D85T_T105E_V106I) (Fab, V domains shown)
# VH: not shown
# VL: B7 VL with F86A, V109I
# B24: CAT-2200 designed Vlambda-Ckappa chimeric Fab, design 15 (E83F_T105E) (Fab, V domains shown)
# VH: not shown
# VL: B7 VL with T88D
# B25: CAT-2200 designed Vlambda-Ckappa chimeric Fab, design 35 (E83A) (Fab, V domains shown)
# VH: not shown
# VL: B7 VL with F86A, T88D, E108T
# B26: CAT-2200 designed Vlambda-Ckappa chimeric Fab, design 29 (E83V_D85T_T105E_V106I) (Fab, V domains shown)
# VH: not shown
# VL: B7 VL with F86V, V109I
# B27: CAT-2200 designed Vlambda-Ckappa chimeric Fab, design 28 (E83V_D85V_T105E) (Fab, V domains shown)
# VH: not shown
# VL: B7 VL with F86V, T88V
# B28: CAT-2200 designed Vlambda-Ckappa chimeric Fab, design 20 (E83F_D85T_T105E_V106I) (Fab, V domains shown)
# VH: not shown
# VL: B7 VL with V109I
# B29: CAT-2200 designed Vlambda-Ckappa chimeric Fab, design 27 (E83V_D85T_T105E) (Fab, V domains shown)
# VH: not shown
# VL: B7 VL with F86V
# B30: CAT-2200 designed Vlambda-Ckappa chimeric Fab, design 36 (E83A_T105E) (Fab, V domains shown)
# VH: not shown
# VL: B7 VL with F86A, T88D
# B31: CAT-2200 designed Vlambda-Ckappa chimeric Fab, design 30 (E83I) (Fab, V domains shown)
# VH: not shown
# VL: B7 VL with F86I, T88D, E108T
# B32: CAT-2200 designed Vlambda-Ckappa chimeric Fab, design 38 (E83A_D85T_T105E) (Fab, V domains shown)
# VH: not shown
# VL: B7 VL with F86A
# B33: CAT-2200 designed Vlambda-Ckappa chimeric Fab, design 32 (E83I_D85T) (Fab, V domains shown)
# VH: not shown
# VL: B7 VL with F86I, E108T
# B34: H3 designed Vlambda-Ckappa chimeric Fab, design 34 (E83I_D85T_T105E_V106I) (Fab, name in Kabat numbering, V domains shown)
# VH: QVQLQESGGGLVKPGGSLRLSCAASGFTFSSYWMSWVRQAPGKGLEWVANINRDGSASYYVDSVKGRFTISRDDAKNSLYLQMNSLRAEDTAVYYCARDRGVGYFDLWGRGTLVTVSS
# VL: QSALTQPASVSGSPGQSITISCTGTSSDVGGYNFVSWYQQHPGKAPKLMIYDVSDRPSGVSDRFSGSKSGNTASLIISGLQADDIATYYCSSYGSSSTHVIFGGGTKVEILR
# B35: H3 wild-type lambda Fab (Fab, V domains shown)
# VH: B34 VH
# VL: B34 VL with I85E, T87D, E109T, I110V, R112G
# notes: Truncated heavy chain (VH-CH1-upper IgG1 hinge) and 'wild-type' lambda light chain (H3 VL + IGLC2); also called WT; H3 Fab
# B36: H3 designed Vlambda-Ckappa chimeric Fab, design 35 (E83A) (Fab, name in Kabat numbering, V domains shown)
# VH: B34 VH
# VL: B34 VL with I85A, T87D, E109T, I110V
# B37: H3 designed Vlambda-Ckappa chimeric Fab, design 37 (E83A_D85T) (Fab, name in Kabat numbering, V domains shown)
# VH: B34 VH
# VL: B34 VL with I85A, E109T, I110V
# B38: H3 designed Vlambda-Ckappa chimeric Fab, design 39 (E83A_D85T_T105E_V106I) (Fab, name in Kabat numbering, V domains shown)
# VH: B34 VH
# VL: B34 VL with I85A
# B39: H3 designed Vlambda-Ckappa chimeric Fab, design 38 (E83A_D85T_T105E) (Fab, name in Kabat numbering, V domains shown)
# VH: B34 VH
# VL: B34 VL with I85A, I110V
# B40: H3 designed Vlambda-Ckappa chimeric Fab, design 36 (E83A_T105E) (Fab, name in Kabat numbering, V domains shown)
# VH: B34 VH
# VL: B34 VL with I85A, T87D, I110V
# Key:
# human recombinant FcRn = molecular target: T2, human recombinant FcRn (human, UniProt P55899 24-297; P61769 21-119, limits assumed); test: SPR (ProteOn), FcRn immobilized, Mab analyte, pH 5.8
# T2 construct: also called neonatal receptor
# T2 sequence (P55899 24-297 limits assumed, chain 1 of 2): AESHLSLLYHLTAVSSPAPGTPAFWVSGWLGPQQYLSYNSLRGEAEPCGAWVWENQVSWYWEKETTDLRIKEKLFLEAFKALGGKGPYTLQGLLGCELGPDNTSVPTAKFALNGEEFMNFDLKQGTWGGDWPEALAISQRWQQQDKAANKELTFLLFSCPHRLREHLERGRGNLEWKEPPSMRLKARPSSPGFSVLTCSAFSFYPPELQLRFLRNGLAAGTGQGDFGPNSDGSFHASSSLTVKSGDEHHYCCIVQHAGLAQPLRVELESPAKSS
# T2 sequence (P61769 21-119 limits assumed, chain 2 of 2): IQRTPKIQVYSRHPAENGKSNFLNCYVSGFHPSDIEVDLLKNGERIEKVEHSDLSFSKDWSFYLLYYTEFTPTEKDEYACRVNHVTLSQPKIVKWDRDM
# Experimental: FcRn affinity determination was carried out as follows. FcRn surface was generated using a GLC sensorchip activated by a 1:10 dilution of the standard BioRad sNHS/EDC solutions injected for 140s at 100 μL/min in the ligand (vertical) direction. Immediately after the activation, 10 microg/mL solution of FcRn in 10 mM NaOAc pH 4.5 was injected in the ligand (vertical) direction at a flow rate of 25 microL/min for 120s until approximately 2000 resonance units (RUs) were immobilized. Remaining active groups were quenched by a 140s injection of 1M ethanolamine at 30 μL/min also in the ligand direction. The running buffer used on the FcRn surface was PBST pH 5.8. The screening of the Mabs for binding to FcRn was performed by injection of purified Mabs in the analyte (horizontal) direction. Firstly, two buffer injections for 30s at 100 microL/min in the analyte (horizontal) direction were used to stabilize the baseline. Five concentrations of a three-fold dilution series of each Mab starting at 100 nM with a blank buffer control were simultaneously injected at 50 microL/min for 120 s with a 10 minute dissociation phase, resulting in a set of binding sensorgrams with a buffer reference. […] Sensorgrams were aligned and double-referenced using the buffer blank injection and interspots, and the resulting sensorgrams were analyzed using ProteOn Manager software v3.1. The double-referenced sensorgrams were fit to the Langmuir binding model.
# recombinant human IL-17A [1] = molecular target: T3, recombinant human IL-17A (human, UniProt Q16552 20-155, limits assumed); test: SPR (ProteOn), IL-17A immobilized, Mab analyte
# T3 construct: Bought reagent
# T3 sequence (Q16552 20-155 limits assumed): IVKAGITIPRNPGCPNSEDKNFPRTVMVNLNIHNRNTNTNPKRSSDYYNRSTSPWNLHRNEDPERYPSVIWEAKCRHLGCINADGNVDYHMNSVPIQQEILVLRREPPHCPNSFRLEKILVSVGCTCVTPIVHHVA
# Experimental: (§1) IL-17 affinity determination was carried out as follows. The IL-17A surface was generated using a GLC sensorchip activated by a 1:10 dilution of the standard BioRad sNHS/EDC solutions injected for 140s at 100 pt/min in the ligand (vertical) direction. Immediately after the activation, 1 to 4 microg/mL solution of IL-17A in 10 mM NaOAc pH 4.5 was injected in the ligand (vertical) direction at a flow rate of 25 or 100 microL/min until approximately 75-200 resonance units (RUs) were immobilized. Remaining active groups were quenched by a 140s injection of 1M ethanolamine at 100 μL/min also in the ligand direction. […] Firstly, two buffer injections for 30s at 100 microL/min in the analyte (horizontal) direction were used to stabilize the baseline. […] Sensorgrams were aligned and double-referenced using the buffer blank injection and interspots, and the resulting sensorgrams were analyzed using ProteOn Manager software v3.1. The double-referenced sensorgrams were fit to the Langmuir binding model.
# [2] = molecular target: T1, human recombinant FcgammaR receptor …; test: SPR (ProteOn), Mab captured via anti-human Fc, FcgammaR analyte
# Experimental: (§2) Goat polyclonal anti-human Fc antibody was purchased from Jackson Immuno Research Laboratories Inc. (West Grove, Pa.). […] Human recombinant FcγR receptors: CD16aV, CD32bF, CD32aR, and CD32aH were expressed as constructs containing a His10-tag at the C-terminus and purified by Ni-affinity chromatography followed by His-tag removal and SEC purification.
# (§3) FcγR affinity determination was carried out as follows. The screening of Mabs for binding to various FcγR receptors occurred in two steps: an indirect capture of Mab samples onto the anti-human Fc-specific polyclonal antibody surface, followed by the injection of five concentrations of each of FcγR receptors. The anti-human Fc surface was prepared on a GLC sensorchip by amine coupling. GLC sensorchip surface was activated by a 1:10 dilution of the standard BioRad sNHS/EDC solutions injected for 140s at 100 μL/min in the analyte (horizontal) direction. Immediately after the activation, 25 microg/mL solution of anti-human Fc in 10 mM NaOAc pH 4.5 was injected in the analyte direction at a flow rate of 25 microL/min for 240s until approximately 4500 or 2500 resonance units (RUs) were immobilized. Remaining active groups were quenched by a 300s injection of 1M ethanolamine at 30 μL/min also in the analyte direction. Mabs for analysis were indirectly captured onto the anti-human Fc surface by injecting 10 microg/ml solutions in the ligand (vertical) direction at a flow rate of 25 microL/min for 240s. Each of the FcγR receptors was subsequently injected in the analyte (horizontal) direction. Firstly, two buffer injections for 30s at 100 microL/min in the analyte (horizontal) direction were used to stabilize the baseline. Five concentrations of a three-fold dilution series of each of the four FcγR receptors starting at 10 μM with a blank buffer control were then simultaneously injected at 50 microL/min for 120 s with a 3 minute dissociation phase, resulting in a set of binding sensorgrams with a buffer reference. […] Sensorgrams were aligned and double-referenced using the buffer blank injection and interspots, and the resulting sensorgrams were analyzed using ProteOn Manager software v3.1.
# [3] = molecular target: human recombinant FcgammaR receptor CD16aV (human, UniProt P08637 17-208, limits assumed); test: as above
# Sequence of human recombinant FcgammaR receptor CD16aV (P08637 17-208 F176V limits assumed): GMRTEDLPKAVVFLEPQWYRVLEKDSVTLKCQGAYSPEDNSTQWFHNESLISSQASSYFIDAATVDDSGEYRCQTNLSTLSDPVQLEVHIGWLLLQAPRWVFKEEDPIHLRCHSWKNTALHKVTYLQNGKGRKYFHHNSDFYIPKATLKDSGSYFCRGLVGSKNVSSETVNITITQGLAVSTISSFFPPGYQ
# Experimental: as §2, §3
# recombinant human IL-17A [4] = molecular target: T3, recombinant human IL-17A; test: SPR (ProteOn), IL-17A immobilized, Fab analyte;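 note: IL-17A amine-coupled on a GLC sensor chip at roughly 75–200 RU, double-referenced sensorgrams fitted with a Langmuir binding model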
# Experimental: as §1
# recombinant human HER3 = molecular target: T4, recombinant human HER3 (human, UniProt P21860 20-643); test: SPR (Biacore T200), HER3 captured via anti-His, Fab analyte;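 note: single cycle kinetics with five Fab concentrations, referenced against a blank flow cell and mock-buffer injections, sensorgrams fit to a 1:1 binding model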
# T4 construct: Bought reagent
# Experimental: HER3 affinity determination in Fabs was carried out as follows. The screening of Fabs (preparative SEC purified) for binding to HER3 antigen occurred in two steps: an indirect capture of HER3 onto the anti-His antibody, followed by the injection of five concentrations of Fabs, for kinetic analysis using single cycle kinetics. […] HER3 was injected at 4-8 μg/mL over the active flow cell for 60 s at a flow rate of 10 μL/min. […] HER3 was not captured on the reference (blank) flow cell. […] The captured HER3 surfaces were regenerated by 10 mM glycine pH 1.5 for 120 s at 30 μL/min to prepare the surfaces for the next injection cycle. At least two mock-buffer injections were performed for each analyte injection and used for referencing. The resulting single cycle kinetics sensorgrams were analyzed using Biacore T200 BiaEvaluation software version 3.0 and fit to the 1:1 binding model.
binder,measurement,setting,value
B1,Kd,human recombinant FcRn,24.7 nM
same,Kd,recombinant human IL-17A [1],0.044 nM
same,Kd,[2],2400 nM
same,Kd,[3],1300 nM
B2,Kd,recombinant human IL-17A [1],0.048 nM
B3,Kd,human recombinant FcRn,23.4 nM
same,Kd,recombinant human IL-17A [1],0.048 nM
same,Kd,[2],2400 nM
same,Kd,[3],1400 nM
B4,Kd,recombinant human IL-17A [1],0.053 nM
B5,Kd,human recombinant FcRn,14.3 nM
same,Kd,recombinant human IL-17A [1],0.042 nM
same,Kd,[2],2500 nM
B6,Kd,recombinant human IL-17A [1],0.05 nM
B7,Kd,recombinant human IL-17A [1],0.048 nM
B8,Kd,human recombinant FcRn,14.2 nM
same,Kd,recombinant human IL-17A [1],0.027 nM
same,Kd,[2],2400 nM
same,Kd,[3],1200 nM
B9,Kd,recombinant human IL-17A [4],0.3 nM
B10,Kd,recombinant human IL-17A [4],0.3 nM
B11,Kd,recombinant human IL-17A [4],0.3 nM
B12,Kd,recombinant human IL-17A [4],0.2 nM
B13,Kd,recombinant human IL-17A [4],0.3 nM
B14,Kd,recombinant human IL-17A [4],0.3 nM
B15,Kd,recombinant human IL-17A [4],0.2 nM
B16,Kd,recombinant human IL-17A [4],0.3 nM
B17,Kd,recombinant human IL-17A [4],0.3 nM
B18,Kd,recombinant human IL-17A [4],0.3 nM
B19,Kd,recombinant human IL-17A [4],0.3 nM
B20,Kd,recombinant human IL-17A [4],0.4 nM
B21,Kd,recombinant human IL-17A [4],0.2 nM
B22,Kd,recombinant human IL-17A [4],0.3 nM
B23,Kd,recombinant human IL-17A [4],0.2 nM
B24,Kd,recombinant human IL-17A [4],0.3 nM
B25,Kd,recombinant human IL-17A [4],0.2 nM
B26,Kd,recombinant human IL-17A [4],0.3 nM
B27,Kd,recombinant human IL-17A [4],0.2 nM
B28,Kd,recombinant human IL-17A [4],0.3 nM
B29,Kd,recombinant human IL-17A [4],0.2 nM
B30,Kd,recombinant human IL-17A [4],0.3 nM
B31,Kd,recombinant human IL-17A [4],0.3 nM
B32,Kd,recombinant human IL-17A [4],0.2 nM
B33,Kd,recombinant human IL-17A [4],0.3 nM
B34,Kd,recombinant human HER3,75.4 nM
B35,Kd,recombinant human HER3,92.4 nM
B36,Kd,recombinant human HER3,59.1 nM
B37,Kd,recombinant human HER3,83.5 nM
B38,Kd,recombinant human HER3,89.6 nM
B39,Kd,recombinant human HER3,72.2 nM
B40,Kd,recombinant human HER3,66.4 nM
